Measurements from PMC4159269.

Assays:
Test in all cases: co-IP; HEK293T co-transfected with FLAG-Siah construct and HA-PHD3; lysate on anti-FLAG M2 agarose beads, 4°C 1 hour, washed with NP40 lysis buffer; blot with anti-HA; densitometry as percentage of WT Siah2 SBD for Fig. 7c
[1] = biological target: SBD[S1]^NT[S2]^CT (SBD chimera with Siah1 N-terminus and Siah2 C-terminus) (human)
[2] = biological target: [S1-8Mut]^NT[S2]^CT (8Mut = N3S/E17S/P21H/A26P/F34Y/P57S/Q62A/F98H) (human)
[3] = biological target: [S1-6Mut]^NT[S2]^CT (6Mut = E17S/P21H/A26P/P57S/Q62A/F98H) (human)

HA-PHD3 (prolyl hydroxylase 3) (from UniProt Q9H6Z9 1-239) (natural protein)
binding as percentage of the binding of WT Siah2 SBD to PHD3 (densitometry) [1]: 4 percent
binding as percentage of the binding of WT Siah2 SBD to PHD3 (densitometry) [2]: 48 percent
binding as percentage of the binding of WT Siah2 SBD to PHD3 (densitometry) [3]: 29 percent
